Results taken from US20250042957A1 (Molecular Partners, published 2025).

T1: scCD3εγ
T1 chain 1: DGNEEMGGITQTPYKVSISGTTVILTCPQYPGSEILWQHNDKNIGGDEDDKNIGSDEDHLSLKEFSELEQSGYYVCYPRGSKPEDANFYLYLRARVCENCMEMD
T1 chain 2: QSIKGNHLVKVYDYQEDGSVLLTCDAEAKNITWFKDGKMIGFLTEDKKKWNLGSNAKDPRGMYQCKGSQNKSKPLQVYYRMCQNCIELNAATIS

T2: CD3-specific binding domain (SEQ ID NO: 3) (biotinylated when used as immobilized SPR ligand (site not stated))
T2 construct: also called α-CD3 DARPin
T2 chain: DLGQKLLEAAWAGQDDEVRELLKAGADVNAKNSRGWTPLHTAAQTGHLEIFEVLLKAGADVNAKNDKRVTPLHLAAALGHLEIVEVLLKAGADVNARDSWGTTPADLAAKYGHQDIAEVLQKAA


Tests used:
scCD3εγ [1] = target: T1, scCD3εγ; assay: ELISA: plate-bound biotinylated scCD3εγ, His-tagged construct titrated, no VEGF
Experimental: (§1) The difference in binding of Switchdrug DARPins to scCD3εγ in presence and absence of VEGF was assessed. […] Said Switchdrug DARPins were mixed with a constant concentration of VEGF (100 nM) and tested for binding to scCD3εγ. […] The difference in EC50 of a construct in presence and absence of VEGF can be referred to as the “activation window”.
(§2) Switchdrug DARPins that were mixed with VEGF were titrated and pre-incubated for 1 day with VEGF in order to establish the thermodynamic equilibrium. These samples were loaded on the ELISA plate, incubated and washed, before the bound Switchdrug DARPins were detected as described above.

scCD3εγ [2] = target: T1, scCD3εγ; assay: ELISA: plate-bound biotinylated scCD3εγ, His-tagged construct titrated without and with 100 nM soluble VEGF
Experimental: as §1, §2

scCD3εγ [3] = target: T1, scCD3εγ; assay: ELISA: plate-bound biotinylated scCD3εγ, His-tagged construct titrated in presence of 100 nM soluble VEGF
Experimental: as §1, §2

VEGF165 [4] = target: T3, VEGF165 (UniProt P15692-4 27-191, biotinylated in the ELISA of Example 4 (site not stated)); assay: ELISA: plate-bound biotinylated VEGF165, His-tagged construct titrated, no soluble VEGF, anti-His-HRP detection
T3 construct: also called biotinylated VEGF165; soluble VEGF

[5] = target: T2, CD3-specific binding domain (SEQ ID NO: …); assay: SPR (ProteOn), biotinylated CD3-specific binding domain immobilized, multi-trace 50-0.195 nM, 25 C
VEGF165 [6] = target: T3, VEGF165; assay: SPR (ProteOn), VEGF165 immobilized, multi-trace 50-0.195 nM, 25 C
[7] = target: T2, CD3-specific binding domain (SEQ ID NO: …); assay: SPR; KD on CD3-specific binding domain (Ligand1) divided by KD on VEGF165 (Ligand2)
scCD3εγ [8] = target: T1, scCD3εγ; assay: ELISA on scCD3εγ, DARPin titrated
scCD3εγ [9] = target: T1, scCD3εγ; assay: SPR, bio-scCD3εγ coated on NAD chip, DARPin 333.33-4.11 nM

T3 sequence (P15692 other isoform, or with tags, fused parts or gaps limits assumed): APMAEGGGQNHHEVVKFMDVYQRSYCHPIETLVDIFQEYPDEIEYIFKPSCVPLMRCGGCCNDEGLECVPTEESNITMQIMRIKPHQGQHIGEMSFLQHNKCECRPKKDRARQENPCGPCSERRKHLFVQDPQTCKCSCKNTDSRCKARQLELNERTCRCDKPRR

Binder	EC50 (read off the curve) (scCD3εγ [1])	shift in EC50 upon addition of 100 nM VEGF (scCD3εγ [2])	EC50 (read off the curve) (scCD3εγ [3])	EC50 (read off the curve) (VEGF165 [4])	Kd [5]	koff [5]	kon [5]	Kd (VEGF165 [6])	kon (VEGF165 [6])	KD ratio (Ligand1/Ligand2) [7]	koff (VEGF165 [6])	EC50 (read off the curve) (scCD3εγ [8])	Kd (scCD3εγ [9])
2-in-1 DARPin 20 (SEQ ID NO: 13) (designed binder, N4C mono-domain; purified by its His-tag) DLDKKLLEAARAGQDDEVRILLKAGADVNAKDSTGWTPLHLAAPWGHPEIVEVLLKAGADVNAKDFQGWTPLHLAAAAGHLEIVEVLLKAGADVNAKDVYGWTPLHLAAAAGHLEIVEVLLKAGADVNAKDWLGWTPLHLAASHGHLEIVEVLLKAGADVNAQDKSGKTPADLAARAGHQDIAEVLQKAA	–	–	–	–	1.44 nM	0.0005 s⁻¹	350000 M⁻¹ s⁻¹	0.69 nM	1.29e+06 M⁻¹ s⁻¹	2.09	–	–	–
2-in-1 DARPin 12 (SEQ ID NO: 7) (designed binder, N3C mono-domain; purified by its His-tag) DLDKKLLEAARAGQDDEVRILLKAGADVNAKDSTGWTPLHLAAPWGHPEIVEVLLKAGADVNAKDVYGWTPLHLAAAAGHLEIVEVLLKAGADVNAKDWLGWTPLHLAASHGHLEIVEVLLKAGADVNAQDKSGKTPADLAARAGHQDIAEVLQKAA	–	–	–	–	1.3 nM	0.00081 s⁻¹	624000 M⁻¹ s⁻¹	6.66 nM	1.59e+06 M⁻¹ s⁻¹	0.195	0.0106 s⁻¹	–	–
2-in-1 DARPin 17 (SEQ ID NO: 10) (designed binder, N3C mono-domain; purified by its His-tag) DLGKKLLQAARAGQLDEVRELLKAGADVNAKDSTGWTPLHLAAPWGHPEIVEVLLKAGADVNAKDFQGWTPLHLAAAAGHLEIVEVLLKAGADVNAKDWLGWTPLHLAASHGHLEIVEVLLKAGADVNAQDKSGKTPADLAARAGHQDIAEVLQKAA	–	–	–	–	392 nM	–	–	0.18 nM	4.63e+06 M⁻¹ s⁻¹	2180	0.00085 s⁻¹	–	–
2-in-1 DARPin 15 (SEQ ID NO: 9) (designed binder, N3C mono-domain; purified by its His-tag) DLDKKLLEAARAGQDDEVRILLKAGADVNAKDSTGWTPLHLAAPWGHPEIVEVLLKAGADVNAKDFQGWTPLHLAAAAGHLEIVEVLLKAGADVNAKDWLGWTPLHLAASHGHLEIVEVLLKAGADVNAQDKSGKTPADLAARAGHQDIAEVLQKAA	–	–	–	–	1360 nM	0.205 s⁻¹	151000 M⁻¹ s⁻¹	0.02 nM	4.11e+06 M⁻¹ s⁻¹	59100	0.0001 s⁻¹	–	–
2-in-1 DARPin 13 (SEQ ID NO: 8) (designed binder, N3C mono-domain; purified by its His-tag) DLDKKLLEAARAGQDDEVRILLKAGADVNAKDSTGWTPLHLAAPWGHPEIVEVLLKAGADVNAKDFYGWTPLHLAAAAGHLEIVEVLLKAGADVNAKDWLGWTPLHLAASHGHLEIVEVLLKAGADVNAQDKSGKTPADLAARAGHQDIAEVLQKAA	–	–	–	–	11.5 nM	0.008 s⁻¹	693000 M⁻¹ s⁻¹	0.81 nM	3.29e+06 M⁻¹ s⁻¹	14.2	0.00268 s⁻¹	–	–
2-in-1 DARPin 11 (SEQ ID NO: 6) (designed binder, N3C mono-domain; purified by its His-tag) DLDKKLLEAARAGQDDEVRILLKAGADVNAKDSTGWTPLHLAAPWGHPEIVEVLLKAGADVNAKDVYGWTPLHIAAASGHLEIVEVLLKAGADVNAKDWLGWTPLHLAASHGHLEIVEVLLKAGADVNAQDKSGKTPADLAARAGHQDIAEVLQKAA	–	–	–	–	0.96 nM	0.00067 s⁻¹	691000 M⁻¹ s⁻¹	11.1 nM	1.38e+06 M⁻¹ s⁻¹	0.0865	0.0153 s⁻¹	–	–

More lines, now with the values ahead:

EC50 (read off the curve) (scCD3εγ [1])	shift in EC50 upon addition of 100 nM VEGF (scCD3εγ [2])	EC50 (read off the curve) (scCD3εγ [3])	EC50 (read off the curve) (VEGF165 [4])	Kd [5]	koff [5]	kon [5]	Kd (VEGF165 [6])	kon (VEGF165 [6])	KD ratio (Ligand1/Ligand2) [7]	koff (VEGF165 [6])	EC50 (read off the curve) (scCD3εγ [8])	Kd (scCD3εγ [9])	Binder
~50 nM	~18 fold	~3 nM	–	–	–	–	–	–	–	–	–	–	Switchdrug DARPin 15-1 (designed binder, also called 2-in-1 DARPin15 in Format 1) MRGSHHHHHHGSDLGQKLLEAAWAGQDDEVRELLKAGADVNAKNSRGWTPLHTAAQTGHLEIFEVLLKAGADVNAKNDKRVTPLHLAAALGHLEIVEVLLKAGADVNARDSWGTTPADLAAKYGHQDIAEVLQKAAGSPTPTPTTPTPTPTTPTPTPTGSDLDKKLLEAARAGQDDEVRILLKAGADVNAKDSTGWTPLHLAAPWGHPEIVEVLLKAGADVNAKDFQGWTPLHLAAAAGHLEIVEVLLKAGADVNAKDWLGWTPLHLAASHGHLEIVEVLLKAGADVNAQDKSGKTPADLAARAGHQDIAEVLQKAA
–	–	–	~10 nM	–	–	–	–	–	–	–	–	–	Switchdrug DARPin 15-B (designed binder, also called 2-in-1 DARPin15 in Format B) MRGSHHHHHHGSDLDKKLLEAARAGQDDEVRILLKAGADVNAKDSTGWTPLHLAAPWGHPEIVEVLLKAGADVNAKDFQGWTPLHLAAAAGHLEIVEVLLKAGADVNAKDWLGWTPLHLAASHGHLEIVEVLLKAGADVNAQDKSGKTPADLAARAGHQDIAEVLQKAAGSPTPTPTTPTPTPTTPTPTPTGSDLGKKLLQAARAGQLDEVRELLKAGADVNAKDQYGRTPLHLAAIKGHLEIVEVLLKAGADVNAKDSLGYTPLHLAAVEGPLEIVEVLLKAGADVNAKDAYGQTPLHIAAAWGHLEIVEVLLKAVADVNAQDKSGKTPADLAARAGHQDIAEVLQKAAGSPTPTPTTPTPTPTTPTPTPTGSDLGQKLLEAAWAGQDDEVRELLKAGADVNAKNSRGWTPLHTAAQTGHLEIFEVLLKAGADVNAKNDKRVTPLHLAAALGHLEIVEVLLKAGADVNARDSWGTTPADLAAKYGHQDIAEVLQKAA
–	–	–	–	1.7 nM	0.00087 s⁻¹	514000 M⁻¹ s⁻¹	0.1 nM	1.16e+06 M⁻¹ s⁻¹	17	0.00012 s⁻¹	–	–	2-in-1 DARPin 18 (SEQ ID NO: 11) (designed binder, N4C mono-domain; purified by its His-tag) DLDKKLLEAARAGQDDEVRILLKAGADVNAKDSTGWTPLHLAAPWGHPEIVEVLLKAGADVNAKDFQGWTPLHLAAAAGHLEIVEVLLKAGADVNAKDVYGWTPLHIAAASGHLEIVEVLLKAGADVNAKDWLGWTPLHLAASHGHLEIVEVLLKAGADVNAQDKSGKTPADLAARAGHQDIAEVLQKAA
–	–	–	–	0.44 nM	0.0002 s⁻¹	450000 M⁻¹ s⁻¹	68.5 nM	1.38e+06 M⁻¹ s⁻¹	0.00647	0.0949 s⁻¹	–	–	2-in-1 DARPin 19 (SEQ ID NO: 12) (designed binder, N4C mono-domain; purified by its His-tag) DLDKKLLEAARAGQDDEVRILLKAGADVNAKDSTGWTPLHLAAPWGHPEIVEVLLKAGADVNAKDFKGWTPLHLAAAAGHLEIVEVLLKAGADVNAKDVYGWTPLHLAAAAGHLEIVEVLLKAGADVNAKDWLGWTPLHLAASHGHLEIVEVLLKAGADVNAQDKSGKTPADLAARAGHQDIAEVLQKAA
–	–	–	–	–	–	–	–	–	–	–	~10 nM	4.67 nM	2-in-1 DARPin 24 (SEQ ID NO: 93) (designed binder, Family 2, from Parent nos 3 and 4; tag not specified) DLGKKLLQAARAGQLDEVRELLKAGADVNAKDSQGRTPLHLAAFAGHLEIVEVLLKAGADVNAKDHAGWTPLHLAAYAGHLEIVEVLVKAGADVNAKDTEGKTPLHIAAWFGHLEIVEVLLKAGADVNAKDKSGKTPLHLAARAGHLEIVEVLLKAGADVNAKDNSGQTPLHEAAWAGHLEIVEVLLKAGADVNAKNSRGWTPLHTAAQTGHLEIFEVLLKAGADVNAKNDKRVTPLHLAAALGHLEIVEVLLKAGADVNARDSWGTTPADLAAKYGHQDIAEVLQKAA
–	–	–	–	–	–	–	–	–	–	–	~10 nM	4.05 nM	2-in-1 DARPin 25 (SEQ ID NO: 94) (designed binder, Family 2, from Parent nos 3 and 4; tag not specified) DLGKKLLQAARAGQLDEVRELLKAGADVNAKDSQGRTPLHLAAFAGHLEIVEVLLKAGADVNAKDHAGWTPLHLAAYAGHLEIVEVLVKAGADVNAKDTEGKTPLHIAAWFGHLEIVEVLLKAGADVNAKDKSGKTPLHLAARAGHLEIVEVLLKAGADVNAKDNSGQTPLHLAAWAGHLEIVEVLLKAGADVNAKNSRGWTPLHTAAQTGHLEIFEVLLKAGADVNAKNDKRVTPLHLAAALGHLEIVEVLLKAGADVNARDSWGTTPADLAAKYGHQDIAEVLQKAA
–	–	–	–	–	–	–	–	–	–	–	~30 nM	3.81 nM	2-in-1 DARPin 23 (SEQ ID NO: 92) (designed binder, Family 2, from Parent nos 3 and 4; tag not specified) DLGKKLLQAARAGQLDEVRELLKAGADVNAKDSQGRTPLHLAAFAGHLEIVEVLLKAGADVNAKDHAGWTPLHLAAYAGHLEIVEVLVKAGADVNAKDTEGKTPLHIAAWFGHLEIVEVLLKAGADVNAKDKSGQTPLHLAAWAGHLEIVEVLLKAGADVNAKNSRGWTPLHTAAQTGHLEIFEVLLKAGADVNAKNDKRVTPLHLAAALGHLEIVEVLLKAGADVNARDSWGTTPADLAAKYGHQDIAEVLQKAA
–	–	–	~20 nM	–	–	–	–	–	–	–	–	–	Switchdrug DARPin 15-A (designed binder, also called 2-in-1 DARPin15 in Format A) MRGSHHHHHHGSDLGKKLLQAARAGQLDEVRELLKAGADVNAKDQYGRTPLHLAAIKGHLEIVEVLLKAGADVNAKDSLGYTPLHLAAVEGPLEIVEVLLKAGADVNAKDAYGQTPLHIAAAWGHLEIVEVLLKAVADVNAQDKSGKTPADLAARAGHQDIAEVLQKAAGSPTPTPTTPTPTPTTPTPTPTGSDLGQKLLEAAWAGQDDEVRELLKAGADVNAKNSRGWTPLHTAAQTGHLEIFEVLLKAGADVNAKNDKRVTPLHLAAALGHLEIVEVLLKAGADVNARDSWGTTPADLAAKYGHQDIAEVLQKAAGSPTPTPTTPTPTPTTPTPTPTGSDLDKKLLEAARAGQDDEVRILLKAGADVNAKDSTGWTPLHLAAPWGHPEIVEVLLKAGADVNAKDFQGWTPLHLAAAAGHLEIVEVLLKAGADVNAKDWLGWTPLHLAASHGHLEIVEVLLKAGADVNAQDKSGKTPADLAARAGHQDIAEVLQKAA
